Here are results for 7 molecules from patent publication US20220372155A1 (LYVGEN BIOPHARMA, published 2022).

In test [1] the target is T1, human CD40 expressed on CHO cells (human, UniProt P25942 21-277).
T1 construct: whole, on cells; also used for the reporter cells over-expressing human CD40; also called cellular CD40; CHO-CD40 cells
The test can be described thus: FACS, CHO cells. In general terms: In flow cytometry, cells or beads pass a laser one at a time.

Test [2] deals with T2, human B7H4 expressed on CHO cells (human, UniProt Q7Z7D3 25-282).
T2 construct: whole, on cells; also called VCTN1
T2 sequence (looked up): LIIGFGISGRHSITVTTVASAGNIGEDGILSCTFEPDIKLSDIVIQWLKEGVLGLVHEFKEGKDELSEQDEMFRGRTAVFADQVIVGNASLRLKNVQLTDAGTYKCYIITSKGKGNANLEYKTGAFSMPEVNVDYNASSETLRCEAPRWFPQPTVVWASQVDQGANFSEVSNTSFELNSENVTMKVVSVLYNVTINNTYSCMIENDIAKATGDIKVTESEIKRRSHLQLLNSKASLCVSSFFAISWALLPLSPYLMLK
Nature of the test: FACS, CHO cells.

Test [3] deals with T3, Human CD40 ECD protein (mouse IgG2a Fc tag) (human, UniProt P25942 21-193).
T3 construct: extracellular domain; also called Human CD40-msFc; human recombinant CD40; not shown: mouse IgG2a Fc tag
Nature of the test: bridging ELISA, coated B7H4, soluble CD40 ECD-mFc. On the procedure:
Anti-B7H4/CD40 bi-specific antibodies were analyzed by ELISA for their simultaneous binding to recombinant human B7H4 and human CD40. Briefly, human B7H4 protein was diluted and coated onto an ELISA plate with a volume of […] by incubation at 4° C. overnight. The next day, the plate was blocked by PBST-BSA buffer, then serially diluted samples of anti-B7H4/CD40 bi-specific antibodies were pipetted into appropriate wells at 50 μL/well, and the plate was incubated for 1 h followed by Washing. Human CD40 ECD protein (mouse IgG2a Fc tag) was added into the plate at 50 μL/well. After 1-hour incubation at room temperature, HRP-conjugated anti-mouse IgG (H+L) antibody was added into the plate at 100 μL/well. The plate was incubated for 1 hour at room temperature followed by washing. TMB substrate solution was added at 100 μL/well and the color development was stopped by adding 100 uL/well Stop Solution (2N H2SO4). Absorbance at 450 nm and 620 nm was read by Tecan F200 Pro plate reader. GraphPad 7.0, “[Agonist] vs. response—Variable slope (four parameters)” was used to plot the binding data and calculate binding EC50 values.
A general note: An ELISA detects its analyte on a solid surface through an enzyme-linked reagent.

In test [4] the target is T4, Ly090 (human CD40 ECD protein with His tag) (human, UniProt P25942 21-193).
T4 construct: extracellular domain; also called human CD40 ECD protein (His tag); recombinant human CD40; not shown: His tag
Nature of the test: bridging ELISA, coated CD40 ECD-His, soluble PD-L1 ECD-mFc. On the procedure:
Exemplary anti-PD-L1/CD40 bi-specific antibodies were analyzed by ELISA for their simultaneous binding to recombinant human PD-L1 and human CD40. Briefly, Ly090 (human CD40 ECD protein with His tag) was diluted and coated onto an ELISA plate with a volume of 100 μL/well by incubation at 4° C. overnight. The next day, the plate was blocked by PBST-BSA buffer, then serially diluted samples of anti-PD-L1/CD40 bi-specific antibodies were pipetted into appropriate wells at 50 μL/well, and the plate was incubated for 1 h followed by Washing. Human PD-L1 ECD protein (mouse IgG2a Fc tag) was added into the plate at 50 μL/well. After 1-hour incubation at room temperature, HRP-conjugated anti-Mouse IgG, Fc G2a antibody was added into the plate at 100 μL/well. The plate was incubated for 1 hour at room temperature followed by washing. TMB substrate solution was added at 100 μL/well and the color development was stopped by adding 100 uL/well Stop Solution (2N H₂SO₄). Absorbance at 450 nm and 620 nm was read by Tecan F200 Pro plate reader. GraphPad 7.0, “[Agonist] vs. response—Variable slope (four parameters)” was used to plot the binding data and calculate binding EC50 values.

T3 sequence (P25942 21-193): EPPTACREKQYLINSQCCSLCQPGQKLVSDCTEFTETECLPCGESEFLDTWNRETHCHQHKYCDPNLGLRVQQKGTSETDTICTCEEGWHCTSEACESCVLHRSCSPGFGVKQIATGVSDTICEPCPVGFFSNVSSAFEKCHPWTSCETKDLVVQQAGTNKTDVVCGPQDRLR
T1 sequence (P25942 21-277): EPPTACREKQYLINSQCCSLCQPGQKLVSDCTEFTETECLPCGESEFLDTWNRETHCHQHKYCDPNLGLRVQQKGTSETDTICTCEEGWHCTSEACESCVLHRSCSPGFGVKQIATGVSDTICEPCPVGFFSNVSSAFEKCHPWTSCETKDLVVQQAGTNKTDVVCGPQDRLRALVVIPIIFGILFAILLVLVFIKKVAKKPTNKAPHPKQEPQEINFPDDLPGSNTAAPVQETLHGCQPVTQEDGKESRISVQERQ
T4 sequence (P25942 21-193): as the sequence (P25942 21-193) above

B1: Ly475 (bispecific antibody, human IgG1, kappa)
heavy: EVQLVESGGDLVKPGGSLKLSCAASGFTFSSYGMSWVRQTPDKRLEWVAAISTGGSYTYYPDSVKGRFTISRDTATNTLYLQMSTLKSEDTAMYYCTRRGATGSWFAYWGQGTLVTVSAASTKGPSVFPLAPSSKSTSGGTAALGCLVKDYFPEPVTVSWNSGALTSGVHTFPAVLQSSGLYSLSSVVTVPSSSLGTQTYICNVNHKPSNTKVDKKVEPKSCDKTHTCPPCPAPELLGPSVFLFPPKPKDTLMISRTPEVTCVVVDVSHEDPEVKFNWYVDGVEVHNAKTKPREEQYNSTYRVVSVLTVLHQDWLNGKEYKCKVSNKALPAPIEKTISKAKGQPREPQVYTLPPSREEMTKNQVSLTCLVKGFYPSDIAVEWESNGQPENNYKTTPPVLDSDGSFFLYSKLTVDKSRWQQGNVFSCSVMHEALHNHYTQKSLSLSPGGGGGSGGGGSGGGGSGGGGSQVQLVESGGGLVQPGGSLKLSCATSGFNFNDYFMNWVRQASGKGLEWVGQIRNKNYNYATYYTESLEGRVTISRDDSKNTAYLQMNSLKTEDTAVYYCTSYYYDGFADYFDYWGQGTTVTVSSGGGGSGGGGSGGGGSGGGGSDIQMTQSPSSLSASVGDRVTITCKASQNIYIYLNWYQQKPGKAPKLLIYNTNNLQTGVPSRFSGSGSGTDFTLTISSLQPEDFATYYCLQHSSRRTFGGGTKVEIK
light: DILMTQSPSSMSVSLGDTVSITCHASQGINNNIGWLQRKPGKSFKGLIYHGTNLEDGVPSRFSGSGSGADYSLTISSLESEDFADYYCVQYVQFPRTFGGGTKLEIKRTVAAPSVFIFPPSDEQLKSGTASVVCLLNNFYPREAKVQWKVDNALQSGNSQESVTEQDSKDSTYSLSSTLTLSKADYEKHKVYACEVTHQGLSSPVTKSFNRGEC
notes: Ly361 HC (IgG1 mutated Fc)-TM740 scFv VH-VL + Ly361 LC
Regarding B1, the binding result in test [1], in test [2] and in test [3] was “binds” in each case.

B2: Ly478 (bispecific antibody, human IgG1, kappa)
heavy: EVQLVESGGDLVKPGGSLKLSCAASGFTFSSYGMSWVRQTPDKRLEWVAAISTGGSYTYYPDSVKGRFTISRDTATNTLYLQMSTLKSEDTAMYYCTRRGATGSWFAYWGQGTLVTVSAASTKGPSVFPLAPSSKSTSGGTAALGCLVKDYFPEPVTVSWNSGALTSGVHTFPAVLQSSGLYSLSSVVTVPSSSLGTQTYICNVNHKPSNTKVDKKVEPKSCDKTHTCPPCPAPELLGPSVFLFPPKPKDTLMISRTPEVTCVVVDVSHEDPEVKFNWYVDGVEVHNAKTKPREEQYNSTYRVVSVLTVLHQDWLNGKEYKCKVSNKALPAPIEKTISKAKGQPREPQVYTLPPSREEMTKNQVSLTCLVKGFYPSDIAVEWESNGQPENNYKTTPPVLDSDGSFFLYSKLTVDKSRWQQGNVFSCSVMHEALHNHYTQKSLSLSPGGGGGSGGGGSGGGGSGGGGSDIQMTQSPSSLSASVGDRVTITCLASEDISNDLAWYQQKPGKAPKLLIYFVDRLLDGVPSRFSGSGSGTDFTLTISSLQPEDFATYYCQQSYKYPPTFGQGTKLEIKGGGGSGGGGSGGGGSGGGGSEVQLVESGGGLVQPGGSLRLSCAASGFTFTNYGLHWVRQAPGKGLEWVSSISPSGGVTYYRDSVKGRFTISRDNSKNTLYLQMNSLRAEDTAVYYCAKPFLGWGGANWIAHWGQGTLVTVSS
light: B1 light
notes: Ly361 HC (IgG1 mutated Fc)-TM559 (printed TM599) scFv VL-VH + Ly361 LC
Regarding B2, the binding result in test [1], in test [2] and in test [3] was “binds” in each case.

B3: Ly482 (bispecific antibody, human IgG1, kappa)
heavy: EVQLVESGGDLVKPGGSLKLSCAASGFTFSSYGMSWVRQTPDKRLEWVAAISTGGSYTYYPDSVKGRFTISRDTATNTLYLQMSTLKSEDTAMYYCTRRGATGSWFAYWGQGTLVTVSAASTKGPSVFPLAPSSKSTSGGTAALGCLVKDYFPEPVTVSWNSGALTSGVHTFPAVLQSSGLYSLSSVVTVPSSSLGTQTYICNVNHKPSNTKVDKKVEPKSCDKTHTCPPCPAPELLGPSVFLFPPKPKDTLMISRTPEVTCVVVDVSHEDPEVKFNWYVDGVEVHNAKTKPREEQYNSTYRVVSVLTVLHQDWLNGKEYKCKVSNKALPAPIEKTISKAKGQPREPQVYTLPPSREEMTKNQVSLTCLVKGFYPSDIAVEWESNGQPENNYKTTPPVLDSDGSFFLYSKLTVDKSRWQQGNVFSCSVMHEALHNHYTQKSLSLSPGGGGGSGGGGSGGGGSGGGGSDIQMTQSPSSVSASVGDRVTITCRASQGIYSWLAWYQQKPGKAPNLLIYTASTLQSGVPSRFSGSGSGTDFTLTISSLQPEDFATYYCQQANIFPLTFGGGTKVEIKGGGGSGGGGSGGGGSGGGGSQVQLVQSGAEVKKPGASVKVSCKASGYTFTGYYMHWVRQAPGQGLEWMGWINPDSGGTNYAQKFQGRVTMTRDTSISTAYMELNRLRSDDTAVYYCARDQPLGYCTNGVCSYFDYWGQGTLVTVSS
light: B1 light
notes: Ly361 HC (IgG1 mutated Fc)-Ly253 scFv VL-VH + Ly361 LC
For B3, the binding result in test [1], in test [2] and in test [3] was “binds” in each case.

B4: Ly483 (bispecific antibody, human IgG1, kappa)
heavy: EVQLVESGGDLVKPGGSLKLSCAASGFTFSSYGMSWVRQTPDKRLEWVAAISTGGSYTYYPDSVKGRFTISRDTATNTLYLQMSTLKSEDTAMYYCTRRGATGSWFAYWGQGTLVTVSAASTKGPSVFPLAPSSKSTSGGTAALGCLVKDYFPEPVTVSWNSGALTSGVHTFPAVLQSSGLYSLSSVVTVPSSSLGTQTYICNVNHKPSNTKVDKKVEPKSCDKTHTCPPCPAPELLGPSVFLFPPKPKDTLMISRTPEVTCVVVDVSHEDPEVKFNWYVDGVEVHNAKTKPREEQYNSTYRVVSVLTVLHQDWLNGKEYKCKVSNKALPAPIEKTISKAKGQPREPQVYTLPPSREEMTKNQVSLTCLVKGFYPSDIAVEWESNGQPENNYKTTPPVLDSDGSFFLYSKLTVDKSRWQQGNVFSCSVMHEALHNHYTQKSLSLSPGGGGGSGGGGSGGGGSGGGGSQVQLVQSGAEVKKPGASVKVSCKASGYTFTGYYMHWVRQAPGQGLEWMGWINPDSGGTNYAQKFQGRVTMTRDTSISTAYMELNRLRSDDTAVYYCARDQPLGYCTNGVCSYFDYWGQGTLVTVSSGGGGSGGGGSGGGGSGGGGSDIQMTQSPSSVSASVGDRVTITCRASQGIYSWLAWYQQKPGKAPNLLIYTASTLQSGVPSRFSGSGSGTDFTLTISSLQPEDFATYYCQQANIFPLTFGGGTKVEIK
light: B1 light
notes: Ly361 HC (IgG1 mutated Fc)-Ly253 scFv VH-VL + Ly361 LC
Turning to B4, the binding result in test [1], in test [2] and in test [3] was “binds” each time.

B5: Ly479 (bispecific antibody, human IgG1, kappa)
heavy: EVQLVESGGDLVKPGGSLKLSCAASGFTFSSYGMSWVRQTPDKRLEWVAAISTGGSYTYYPDSVKGRFTISRDTATNTLYLQMSTLKSEDTAMYYCTRRGATGSWFAYWGQGTLVTVSAASTKGPSVFPLAPSSKSTSGGTAALGCLVKDYFPEPVTVSWNSGALTSGVHTFPAVLQSSGLYSLSSVVTVPSSSLGTQTYICNVNHKPSNTKVDKKVEPKSCDKTHTCPPCPAPELLGPSVFLFPPKPKDTLMISRTPEVTCVVVDVSHEDPEVKFNWYVDGVEVHNAKTKPREEQYNSTYRVVSVLTVLHQDWLNGKEYKCKVSNKALPAPIEKTISKAKGQPREPQVYTLPPSREEMTKNQVSLTCLVKGFYPSDIAVEWESNGQPENNYKTTPPVLDSDGSFFLYSKLTVDKSRWQQGNVFSCSVMHEALHNHYTQKSLSLSPGGGGGSGGGGSGGGGSGGGGSEVQLVESGGGLVQPGGSLRLSCAASGFTFTNYGLHWVRQAPGKGLEWVSSISPSGGVTYYRDSVKGRFTISRDNSKNTLYLQMNSLRAEDTAVYYCAKPFLGWGGANWIAHWGQGTLVTVSSGGGGSGGGGSGGGGSGGGGSDIQMTQSPSSLSASVGDRVTITCLASEDISNDLAWYQQKPGKAPKLLIYFVDRLLDGVPSRFSGSGSGTDFTLTISSLQPEDFATYYCQQSYKYPPTFGQGTKLEIK
light: B1 light
notes: Ly361 HC-TM559 scFv VH-VL + Ly361 LC
Consider B5, for which the binding result in test [1], in test [2] and in test [3] was “binds” each time.

B6: Ly487 (bispecific antibody, human IgG1, kappa)
heavy: EVQLVESGGGLVKPGGSLKLSCAASGFTFSDSGMHWVRQAPEKGLEWITYINSGSSTIYYADSVKGRFTISRDNAKNTLFLQMTSLRSEDTAMYYCARGRGYAMDYWGQGTSVTVSSASTKGPSVFPLAPSSKSTSGGTAALGCLVKDYFPEPVTVSWNSGALTSGVHTFPAVLQSSGLYSLSSVVTVPSSSLGTQTYICNVNHKPSNTKVDKKVEPKSCDKTHTCPPCPAPELLGPSVFLFPPKPKDTLMISRTPEVTCVVVDVSHEDPEVKFNWYVDGVEVHNAKTKPREEQYNSTYRVVSVLTVLHQDWLNGKEYKCKVSNKALPAPIEKTISKAKGQPREPQVYTLPPSREEMTKNQVSLTCLVKGFYPSDIAVEWESNGQPENNYKTTPPVLDSDGSFFLYSKLTVDKSRWQQGNVFSCSVMHEALHNHYTQKSLSLSPGGGGGSGGGGSGGGGSGGGGSQVQLVESGGGLVQPGGSLKLSCATSGFNFNDYFMNWVRQASGKGLEWVGQIRNKNYNYATYYTESLEGRVTISRDDSKNTAYLQMNSLKTEDTAVYYCTSYYYDGFADYFDYWGQGTTVTVSSGGGGSGGGGSGGGGSGGGGSDIQMTQSPSSLSASVGDRVTITCKASQNIYIYLNWYQQKPGKAPKLLIYNTNNLQTGVPSRFSGSGSGTDFTLTISSLQPEDFATYYCLQHSSRRTFGGGTKVEIK
light: EIVLTQSPTTMAASPGEKITIFCSASSSISSDFLHWYQQKPGFSPKLLIYRISNLASGVPARFSGSGSGTSYSLTIGTMEAEDVATYYCQQGSNVPRTFGGGTKLEIKRTVAAPSVFIFPPSDEQLKSGTASVVCLLNNFYPREAKVQWKVDNALQSGNSQESVTEQDSKDSTYSLSSTLTLSKADYEKHKVYACEVTHQGLSSPVTKSFNRGEC
notes: Ly366 HC (IgG1 mutated Fc)-TM740 scFv VH-VL + Ly366 LC
Turning to B6, the binding result in test [1], in test [2] and in test [3] was “binds” throughout.

B7: Ly345 (bispecific antibody, human IgG1, kappa)
heavy: QVQLVQSGAEVKKPGASVKVSCKASGYTFTDFWMSWVRQAPGQGLEWMGQIYPNTGTTHSNEKFKGRVTMTRDTSTSTVYMELSSLRSEDTAVYYCARSYHISTTPNWFAYWGQGTLVTVSSASTKGPSVFPLAPSSKSTSGGTAALGCLVKDYFPEPVTVSWNSGALTSGVHTFPAVLQSSGLYSLSSVVTVPSSSLGTQTYICNVNHKPSNTKVDKKVEPKSCDKTHTCPPCPAPELLGPSVFLFPPKPKDTLMISRTPEVTCVVVDVSHEDPEVKFNWYVDGVEVHNAKTKPREEQYNSTYRVVSVLTVLHQDWLNGKEYKCKVSNKALPAPIEKTISKAKGQPREPQVYTLPPSREEMTKNQVSLTCLVKGFYPSDIAVEWESNGQPENNYKTTPPVLDSDGSFFLYSKLTVDKSRWQQGNVFSCSVMHEALHNHYTQKSLSLSPG
light: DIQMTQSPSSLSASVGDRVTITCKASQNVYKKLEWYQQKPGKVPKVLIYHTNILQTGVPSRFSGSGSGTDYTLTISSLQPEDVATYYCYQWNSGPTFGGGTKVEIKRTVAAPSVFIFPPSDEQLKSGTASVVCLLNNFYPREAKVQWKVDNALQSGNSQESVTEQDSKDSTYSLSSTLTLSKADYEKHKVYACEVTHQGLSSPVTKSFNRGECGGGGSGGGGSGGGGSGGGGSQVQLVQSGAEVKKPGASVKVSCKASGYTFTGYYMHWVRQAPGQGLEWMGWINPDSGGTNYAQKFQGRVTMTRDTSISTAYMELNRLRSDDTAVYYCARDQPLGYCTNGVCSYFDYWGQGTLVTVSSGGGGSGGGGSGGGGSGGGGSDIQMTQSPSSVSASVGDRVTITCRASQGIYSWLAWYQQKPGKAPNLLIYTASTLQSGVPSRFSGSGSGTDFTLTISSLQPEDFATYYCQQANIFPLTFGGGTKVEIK
notes: Ly076 HC (IgG1 mutated Fc) + Ly076 LC-Ly253 scFv VH-VL
For B7, the binding result in test [4] and in test [1] was “binds” in each case.
